According to article PMC9005503:

Molecular target: T1, FZD3 (human (endogenous in hESC-derived EPs)) (UniProt Q9NPG1)
T1 sequence: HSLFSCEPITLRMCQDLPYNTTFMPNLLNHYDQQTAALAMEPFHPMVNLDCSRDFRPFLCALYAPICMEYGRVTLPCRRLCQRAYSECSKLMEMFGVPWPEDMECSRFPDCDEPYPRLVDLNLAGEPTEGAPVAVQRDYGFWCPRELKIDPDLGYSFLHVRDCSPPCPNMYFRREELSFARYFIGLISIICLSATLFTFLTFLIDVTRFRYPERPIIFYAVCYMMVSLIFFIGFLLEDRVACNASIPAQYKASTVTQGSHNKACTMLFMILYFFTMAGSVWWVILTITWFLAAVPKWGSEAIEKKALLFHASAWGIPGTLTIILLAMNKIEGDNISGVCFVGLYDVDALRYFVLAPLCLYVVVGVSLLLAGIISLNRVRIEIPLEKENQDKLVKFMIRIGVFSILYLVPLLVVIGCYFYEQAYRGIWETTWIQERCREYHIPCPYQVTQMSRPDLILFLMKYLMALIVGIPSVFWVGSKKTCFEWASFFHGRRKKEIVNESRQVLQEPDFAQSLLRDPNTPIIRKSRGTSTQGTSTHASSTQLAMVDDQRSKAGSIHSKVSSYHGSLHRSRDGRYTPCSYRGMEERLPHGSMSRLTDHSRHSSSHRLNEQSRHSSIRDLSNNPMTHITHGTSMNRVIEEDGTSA

INS+ cell number (immunofluorescence, day 3) of hESC-derived EPs treated with WNT5A and FZD3-neutralizing antibodies, compared to WNT5A treated EPs: 2.5 fold
B1: WNT5A recombinant protein (ligand)
chain: IIGAQPLCSQLAGLSQGQKKLCHLYQDHMQYIGEGAKTGIKECQYQFRHRRWNCSTVDNTSVFGRVMQIGSRETAFTYAVSAAGVVNAMSRACREGELSTCGCSRAARPKDLPRDWLWGGCGDNIDYGYRFAKEFVDARERERIHAKGSYESARILMNLHNNEAGRRTVYNLADVACKCHGVSGSCSLKTCWLQLADFRKVGDALKEKYDSAAAMRLNSRGKLVQVNSRFNSPTTQDLVYIDPSPDYCVRNESTGSLGTQGRLCNKTSEGMDGCELMCCGRGYDQFKTVQTERCHCKFHWCCYVKCKKCTEIVDQFVCK
